Data as given in patent US20210388031A1 (New Jersey Institute of Technology, published 2021).

Target: SARS-CoV-2 Spike protein on live virus (SARS-CoV-2, UniProt P0DTC2)
Assay: cell-based or functional assay

ESLSLSLSLSLSLEGSALEEGQLKTFLDKFMHELEDLLYQLAL [ESBP2]
IC50 of reduction in live-virus infectivity: < 10 nM
